The source of these data is the nanobody polyreactivity screen of Harvey et al. (2022).

This data set is described as follows: yeast display, Sf9 membrane polyspecificity reagent, FACS + sequencing; frameworks hold sequencing errors. The essentials: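 After 36–48 hours of galactose induction, yeast (Saccharomyces cerevisiae BJ5465) displaying a synthetic nanobody library were stained at 4 °C for 1 hour with 10% biotinylated, detergent-solubilized Sf9 membrane reagent. Streptavidin microbeads enriched the stained cells before FACS sorting into low and high (top ~1%) gates on anti-HA and streptavidin fluorescence. Each clone's polyreactivity label reflects its gate of origin.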
Turning to “QVQLVESGGRLVQERGSLRLSCAASGFIFGRYAMGWYIQAPGKERELVAAITQSGGSTYYADSVKGRFTISRDNAKNTVYVQMNCLNPEDTAVYYCIAPIAYWRVHYKYGYWGQGTQVTVSS”, the “polyreactivity (PSR sort gate)” value is “low polyreactivity”.

Take “QVQLVESGGSLVQAGGSLRLSCAASGRTFGYNGMGWYRQAPGKERELVAAITNDGGNTNYADSVKGRFTISRDNAKNTVYLQMNSLKPEDTAVYYCNADRTQDRNPYTYATFDYWGQGTQVTVSS”: the “polyreactivity (PSR sort gate)” value is “low polyreactivity”.

Take “QVQLVESGGSLVQAGGSLRLSCAASGSTLYYNAMGWYRQAPGKERELVAAISWSGGSTYYADSVKGRFTISRDNAKNTVYLQMNSLKPEDTSVYYCAADQSTVLDVGSWGQGTQVTVSS”: the “polyreactivity (PSR sort gate)” value is on record as “low polyreactivity”.

For the sequence “QVQLVESGGVLVQAGCSLRLSCAASGSTFYYNAMGWYRQAPRKERELVARISRSGGSTYADSVKGRFTISRDNAKNTVYLQMNSLKPEDTAVYYCYADAYGTPEFTSYAVRYDYWGQGTQVTVSS”, the “polyreactivity (PSR sort gate)” value was “low polyreactivity”.

For “QVQLVESGGVLVQAGCSLRLSCAAYGFTFASYAMGWYRQAPGKERELVAAISWGTVSTYYADSVKGRFTISRDNAMITVYLQMNSLRREDTAVYFCDAQRYTRLRRHGYWGLGTQVTVSS”, the “polyreactivity (PSR sort gate)” value was “high polyreactivity”.

As for “QVQLVESGGVLVQAGGSLPLSCAASGFTFSRYAMGWYRQAPGKEREFVAGISRSGGSTYYADSVKGRFTNTRDNAMNTVSLQMNSLKPEDTAVYYWAKVYPATEAGDYWGQGTQVTVSS”, the “polyreactivity (PSR sort gate)” value was “high polyreactivity”.

On to “QVQLVESGGVLVQAGGSLRLSCAASGFIFSSNAMGWCREAPGKERELVAAITGGGGRTRYADSVKGRFTISRDNAKNTVYLQMNSLKPEDTAVYYCAAEVYSIWWYDYWGQGTQVTVSS”, for which the “polyreactivity (PSR sort gate)” value is recorded as “high polyreactivity”.

Consider “QVQLVESGGVLVQAGGSLRLSCAASGFIFVRYAMGWYRQAPGKERELVAAITSSDSNTNYADSVKGRFTISRDNAKNTVYLQMNSLNPEDTAVYYCNARIYTRRYVPHYGFNYWGQGTQVTVSS”, for which the “polyreactivity (PSR sort gate)” value was “low polyreactivity”.

Turning to “QVQLVESGGVLVQAGGSLRLSCAASGFTFVWYAMGWYRQAPGKERELVAAISRRGTRTYYADSVKGRFTISRDNAKNTVYLQMNSLKPEDTALYYCAASNGYQAVTYDYWGQGTQVTVSS”, the “polyreactivity (PSR sort gate)” value was “high polyreactivity”.

Take “QVQLVESGGVLVQAGGSLRLSCAASGGIFNYYAMGWYRQAPGKERELVAAISASGGSTYYADSVKGRFTISRDNAKNTVYLQMNILKPEDTAVYYCAAGLPYGYGYDYWGQGTQVTVSS”: the “polyreactivity (PSR sort gate)” value is on record as “low polyreactivity”.

For the sequence “QVQLVESGGVLVQAGGSLRLSCAASGITFPDYDMGWYIHATGKERELVAAITYRSGSTYYADSVKGRFTISRDNAKNTVFLQMNCLKREDTAVYYCAADWRTKGYDSLGQGTQVTVSS”, the “polyreactivity (PSR sort gate)” value is “high polyreactivity”.

With “QVQLVESGGVLVQAGGSLRLSCAASGRIFGDNAMGWYRHAPGKERELDADIDSGGRTNYADSVKVRFTISLDNAKNTVYLQMNSLKPEDTAVYYCGRDDIAYLVEYDYWGQGTQVTVSS”, the “polyreactivity (PSR sort gate)” value was “low polyreactivity”.

With “QVQLVESGGVLVQAGGSLRLSCAASGRIFGENAMGWYRQAPGKEREFVAVISISDASTYYADSVKGRFTISRDNAKNTVYLQMNSLKPEDTAVYYCADDLTDFLYVASDYWGQGTQVTVSS”, the “polyreactivity (PSR sort gate)” value was “low polyreactivity”.

Turning to “QVQLVESGGVLVQAGGSLRLSCAASGRIFLRNVMGWYRQAPGKERELVAAISSSGGRTYYADSVKGRFTISRDNAKNSVYLQMNSLKPEDTAVYYCANLSSSRLPSEMEYWGQGTQVTVSS”, the “polyreactivity (PSR sort gate)” value is recorded as “high polyreactivity”.

Turning to “QVQLVESGGVLVQAGGSLRLSCAASGRIFQTYAMGWYRQAPGKERELVAAISSRGRTYYADSVKGRFTISRDNAKITVYLQMNSLKREDTAVYYCAARDWSHRPRGYDYWGQGTQVTVSS”, the “polyreactivity (PSR sort gate)” value is “high polyreactivity”.

Consider “QVQLVESGGVLVQAGGSLRLSCAASGRIFSAYAMGWYRPAPGKERDLVAAITSVGSTKYADYVKGRFTISRDNAKNTVYLQMNSLKPQDTAVYYCAAEYTRSFYIYYRFGYWGQGTQVTVSS”, for which the “polyreactivity (PSR sort gate)” value was “high polyreactivity”.

In the case of “QVQLVESGGVLVQAGGSLRLSCAASGRSFGVYAMGWYRQAPGKEMELVAAISEGGGSTNYADSVKGRFTISRDNAKNTVYLQMNSLKPEDTAVYYCAATYRTGVRRYYSWGQGTQVTVSS”, the “polyreactivity (PSR sort gate)” value is “low polyreactivity”.

“QVQLVESGGVLVQAGGSLRLSCAASGRTFGVYAMGWYRQAPGKERELVATITSVDRTNYADSVKGRFTISRDNAKNTVYLQMNSLKTEDTAVYYCAAVGRWPLYYYWGQGTQVTVSS”: the “polyreactivity (PSR sort gate)” value is given as “high polyreactivity”.

As for “QVQLVESGGVLVQAGGSLRLSCAASGRTFRRNAMGWYRQAPGKERELVAGIRSSGGSTYYADSVKGRFTISRDNAKNTVYLQINSLKQEDTAVYYCNAVGRPRYGHGFDHWGQGTQVTVSS”, the “polyreactivity (PSR sort gate)” value is recorded as “high polyreactivity”.

As for “QVQLVESGGVLVQAGGSLRLSCAASGRTLRWYAKGWYRPAPGKERELVAAINWSGTSTYYADSVKGRFTISRDNAKNTVYLQMNSLKPEDTAVYYCAKRVTWNYDWGQGTQVTVSS”, the “polyreactivity (PSR sort gate)” value is reported as “high polyreactivity”.

“QVQLVESGGVLVQAGGSLRLSCAASGSIFANNAMGWYRQAPGKERELVATIRSGGTTNYADSVKGRFTISRDNAKNTVYLQMNSLKPEDTAVYYCAVDYVVYADGPLDYWGQGTQVTVSS”: the “polyreactivity (PSR sort gate)” value is on record as “low polyreactivity”.

For “QVQLVESGGVLVQAGGSLRLSCAASGSIFDSNAMGWYRQAPGKERELVAAISWSGSRTYYADSVKGRFTISRDYAKNTVYLQILSLKPEDTAVYYCAALVRRYGKYDYWGQCTQVTVSS”, the “polyreactivity (PSR sort gate)” value is given as “high polyreactivity”.

On to “QVQLVESGGVLVQAGGSLRLSCAASGSIFDTYAMGWYRQAPGKERELVAAITWSGSSTYYADSVKGRFTISRDNAKNTVYLQMNSLKQEDTAVYYCAKDYYVEVTTEYDYWGQGTQVTVSS”, for which the “polyreactivity (PSR sort gate)” value is “high polyreactivity”.

Take “QVQLVESGGVLVQAGGSLRLSCAASGSIFERYDMGWYRQAPGKERELVAAITSAGITYYADSVKGRFTISRDNAKNNVYLQMNSLKPEDTAVYYCAAQGRRGAPYRHVNEGDYWGQGTQVTVSS”: the “polyreactivity (PSR sort gate)” value is listed as “low polyreactivity”.

Turning to “QVQLVESGGVLVQAGGSLRLSCAASGSIFRGYAMGCYRQAPGKERELVAAINTSGGRTYYADSVKGRFTISRDNAKNTVYLQMIRLKPDDTAVYYCATEYYQAKREDYWGQGTQVTVSS”, the “polyreactivity (PSR sort gate)” value is on record as “high polyreactivity”.

For the sequence “QVQLVESGGVLVQAGGSLRLSCAASGSIFSGYSMGWYRQAPGKERELVAAITWNGGSTYYADSVKGRFTISRDNAKNTVYLQMNILKPEDTAVYYCAAERAARFNYWGQGTQVTVSS”, the “polyreactivity (PSR sort gate)” value is “high polyreactivity”.

In the case of “QVQLVESGGVLVQAGGSLRLSCAASGSISSVYAMGWYRQAPGKDRELVAGITSGGSTNYADSVKGRFTISRDNAKITVYLQMNSLKPEDTAVYYCAAVYKGAGTHFDVFVKEFDYWRQGTQVTVSS”, the “polyreactivity (PSR sort gate)” value is “low polyreactivity”.

As to “QVQLVESGGVLVQAGGSLRLSCAASGSTFEDYTMGWYRQAPRKVRELVAISTRGGTYYADSVKGRFTSSRDNPKNTVYLQRNSLKPEDTAVYYCNKRFGYYSWDQYSRDYWGQGTQVTVSS”, the “polyreactivity (PSR sort gate)” value was “low polyreactivity”.

In the case of “QVQLVESGGVLVQAGGSLRLSCAASGSTFGKNTMGWYRQAPGKERELVAAISRGVSTYYAYSVKGRFTISRDNATNTFYLQMNSLKPEDTALYYCAAQEAYRWYGFDFWGQGTQVTVLS”, the “polyreactivity (PSR sort gate)” value is reported as “high polyreactivity”.

As to “QVQLVESGGVLVQAGGSLRLSCAASGSTFGRYTMGWYRQAPGKERELVAVITKSGGSTYYADSVKGRFTISRDNAKNTVYLQMNSLKPEDTAVYYCAAGVAWRFYSWGQGTQVTVSS”, the “polyreactivity (PSR sort gate)” value is “high polyreactivity”.
